What is called EC50 (read off the curve) is the concentration that produces a half-maximal response. A lower EC50 (read off the curve) goes with an effect from little substance. The Kd is a measure of binding affinity in units of concentration. By koff is commonly meant the rate constant with which the complex falls apart.

Experiment [1] concerns the target T1, goat anti-human TβRII polyclonal antibody (R&D).
T1 construct: Polyclonal reagent; also called anti-human soluble TβRII polyclonal antibody (R&D); commercially available anti-human TβRII polyclonal antibody
In words: sandwich ELISA: goat anti-human TβRII polyclonal antibody coated, soluble TβRII titrated, detection with the biotin-labeled goat anti-human TβRII polyclonal antibody and streptavidin-β-galactosidase (fluorescence). As for the experimental part: Establishment of a Quantitative Method with Sandwich ELISA for Human Soluble TβRII <1-1> Establishment of a Sandwich ELISA System to Quantify Soluble Recombinant Human TβRII Goat anti-human TβRII polyclonal antibody (R&D) was diluted with phosphate buffer, and added to each well of a 96-well ELISA microplate (Corning) at a concentration of 0.1 μg/50 μl/well. The plate was incubated at room temperature for one hour to allow adsorption of the polyclonal antibody.
The assay sample was added to each well of the antibody-immobilized microplate (50 μl/well), and the plate was incubated at room temperature for one hour. Then, the microplate was washed three times with phosphate buffer containing 0.1% Tween20. Biotin-labeled goat anti-human TβRII polyclonal antibody (R&D) (diluted with phosphate buffer containing 1% BSA and 0.1% Tween20) was then added to each well at a concentration of 0.025 μg/50 μl/well. The plate was incubated at room temperature for one hour.
A calibration curve was prepared with the sandwich ELISA established in Example <1-1> using commercially available soluble recombinant human TβRII (R&D) as a standard.
Background: In an ELISA, binding on a coated surface is turned into a signal by an enzyme label.

For experiment [2], the target named is T2, purified soluble recombinant human TβRII (extracellular domain of human TGF-β type II receptor, prepared in … (human, UniProt P37173 23-159)).
T2 construct: The range 1-159 is as printed; also called purified human soluble TβRII; purified soluble human TβRII
In words: SPR (Biacore X), soluble TβRII immobilised on the chip, antibody injected. As for the experimental part:
HBS buffer (containing 0.01 M HEPES, 0.15 M NaCl, 3 mM EDTA, and 0-0.005% Detergent P20, pH 7.0) was injected through a flow cell-1 attached to the kit at a flow rate of 5 μl/min. Then, 35 μl of a solution consisting of 0.005 M NHS (N-hydroxysuccinimide) and 0.2 M EDC (N-ethyl-N'-(dimethylaminopropyl)carbodiimide) was injected to activate the carboxyl groups of the CM coated on the sensor chip.
Then, 70 μl of purified soluble human TβRII (30 μg/ml; dissolved in 10 mM sodium acetate buffer (pH 5.0)) prepared in Example 2 was injected over the chip to be immobilized on the sensor chip.
Phosphate buffer was injected to the flow cell (sensor chip) at a flow rate of 20 μl/minute, and each of the purified human anti-human TGF-β type II receptor monoclonal antibody prepared in the above Example (40 to 100 μg/ml, 60 μl) was added thereto.
Background: SPR reads the build-up and loss of mass on a sensor chip optically.

The target of experiment [3] is T3, rat TβRII expressed on the cell surface of rat kidney-derived fibroblast cell line NRK-49F (rat, UniProt P38438 24-567).
T3 construct: whole, on cells
T3 sequence (looked up): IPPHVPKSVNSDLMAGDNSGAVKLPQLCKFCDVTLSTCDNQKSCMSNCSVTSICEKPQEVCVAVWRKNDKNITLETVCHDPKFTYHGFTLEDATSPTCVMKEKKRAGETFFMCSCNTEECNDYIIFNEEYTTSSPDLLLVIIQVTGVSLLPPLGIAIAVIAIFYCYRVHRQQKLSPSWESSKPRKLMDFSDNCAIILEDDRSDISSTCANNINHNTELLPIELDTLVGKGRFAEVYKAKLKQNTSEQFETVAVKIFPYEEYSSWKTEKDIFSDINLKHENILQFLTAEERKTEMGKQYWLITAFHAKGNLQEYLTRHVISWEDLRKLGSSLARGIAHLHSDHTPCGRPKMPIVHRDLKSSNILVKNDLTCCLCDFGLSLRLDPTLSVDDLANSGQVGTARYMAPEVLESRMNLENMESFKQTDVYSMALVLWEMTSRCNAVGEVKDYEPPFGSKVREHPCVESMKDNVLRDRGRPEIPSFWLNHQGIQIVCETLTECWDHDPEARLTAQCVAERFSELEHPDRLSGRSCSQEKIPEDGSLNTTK
In words: flow cytometry on rat kidney-derived fibroblast cell line NRK-49F, antibody at 5 µg/ml, biotin-labeled anti-human immunoglobulin (Fc) antibody and streptavidin-PE [d]. As for the experimental part:
(§1) Further, similarly, the reactivity against rat TβRII of each of the various human anti-human TβRII monoclonal antibodies was analyzed by cell staining (by flow cytometry) using rat kidney-derived fibroblast cell line NRK-49F (ATCC CRL-1570) expressing rat TβRII on cell surface.
(§2) Each of the human anti-human TβRII monoclonal antibodies of the present invention or commercially available goat anti-human TβRII polyclonal antibody (R&D) (300 μl, 5 μg/ml) (diluted with phosphate buffer containing 0.1% BSA) was added to the respective cells (1 to 2 ×10^4 cells). The mixtures were incubated at 4° C. for one hour, and then centrifuged (at 1,500 rpm for three minutes). The supernatants were discarded, and the cells were washed twice with phosphate buffer. The biotin-labeled anti-human immunoglobulin (Fc) antibody (200 μl; American Qualex International Inc.) was added to the samples containing the human antibodies. The biotin-labeled anti-goat immunoglobulin antibody (200 μl; Amersham Pharmacia) was added to the samples containing the goat antibody. The samples were incubated at 4° C. for one hour.
(§3) Then, each sample was centrifuged (at 1,500 rpm for three minutes), and the supernatant was discarded. […] The samples were fluorescently analyzed with FACStar fluorescence-activated cell sorter (Becton Dickinson) (fluorescence wavelength: a DF585/42 filter, excitation wavelength: 488 nm).
(Flow cytometry measures light scatter and fluorescence of single cells or particles in a stream.)

The target in experiment [4] is T3, rat TβRII expressed on the cell surface …. In words: flow cytometry on rat kidney-derived fibroblast cell line NRK-49F, antibody at 5 µg/ml, biotin-labeled anti-human immunoglobulin (Fc) antibody and streptavidin-PE [f]. As for the experimental part: as §1, §2, §3

B1: commercially available soluble recombinant human TβRII (R&D) (receptor, UniProt P37173 23-159, looked up)
chain: TIPPHVQKSVNNDMIVTDNNGAVKFPQLCKFCDVRFSTCDNQKSCMSNCSITSICEKPQEVCVAVWRKNDENITLETVCHDPKLPYHDFILEDAASPKCIMKEKKKPGETFFMCSCSSDECNDNIIFSEEYNTSNPD
notes: Bought product; also called standard substance
Regarding B1, in experiment [1], the “EC50 (read off the curve)” value was about 2 ng/mL.

B2: human anti-human TβRII monoclonal antibody TR4C175 (antibody, V domains shown)
VH: EVQLVESGGGLVKPGGSLRLSCAASGFTFSSFSMNWVRQAPGKGLEWVSSISSSSSYIYYTDSVKGRFTISRDNAKNSLYLQMNSLRAEDTAVYYCARGYWGFDYWGQGTLVTVSS
VL: DIQMTQSPSSLSASVGDRVTITCRASQGIRNDLGWYQQKPGKAPKRLIYAASSLQSGVPSRFSGSASGTEFTLTISSLQPEDFATYYCLQHNSNPLTFGGGTKVEIKR
notes: Human IgG4/kappa purified from hybridoma supernatant (transgenic mouse); VH gene 3-21 (DP-77), VL gene A30; The stated signal residues must be removed from the entries; also called Clone TR4C175; TRC175
As to B2, in experiment [2], the dissociation constant (Kd) is 51 nM and the koff came out at 0.014 s⁻¹. Moreover, the binding result in experiment [3] is “binds”.

B3: human anti-human TβRII monoclonal antibody TR4D455 (antibody, human IgG4, V domains shown)
VH: EVQLVQSGAEVKKPGESLKISCKGSGYSFTSYWIGWVRQMPGKGLEWMGIIYPGDSDTRYSPSFQGQVTISADKSISTAYLQWSSLKASDTAMYYCARVGGCSGGSCYLWGQGNLVTVSS
VL: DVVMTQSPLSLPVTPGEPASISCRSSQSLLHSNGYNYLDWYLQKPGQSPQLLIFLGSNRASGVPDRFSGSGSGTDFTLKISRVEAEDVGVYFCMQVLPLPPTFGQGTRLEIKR
notes: Human IgG4/kappa purified from hybridoma supernatant; VH gene 5-51 (DP-73), VL gene A19 (DPK-15); The stated signal residues must be removed from the entries; also called Clone TR4D455
In the case of B3, the binding result in experiment [4] was “binds”. In experiment [2], the Kd came to 3.4 nM and the koff came out at 0.00012 s⁻¹.

Values taken from patent publication US7579186 (Amgen, dated 2009).
